Reference: PMC9076830, “Structure of the Arabidopsis guard cell anion channel SLAC1 suggests activation mechanism by phosphorylation” (Nature Communications, 2022)

Target: the molecule itself
Test: cryo-EM structure; single-particle analysis of purified AtSLAC1 S59A in 25 mM HEPES pH 7.4, 150 mM NaCl, 0.03% digitonin; final refinement with C3 symmetry; 2.7 Å

B1: Arabidopsis thaliana slow anion channel 1 (AtSLAC1) S59A mutant (natural protein, UniProt Q9LD83 1-556, looked up)
chain: MERKQSNAHSTFADINEVEDEAEQELQQQENNNNKRFSGNRGPNRGKQRPFRGFSRQVALETGFSVLNRESRERDDKKSLPRSGRSFGGFESGGIINGGDGRKTDFSMFRTKSTLSKQKSLLPSIIRERDIENSLRTEDGETKDDSINENVSAGRYFAALRGPELDEVKDNEDILLPKEEQWPFLLRFPIGCFGICLGLSSQAVLWLALAKSPATNFLHITPLINLVVWLFSLVVLVSVSFTYILKCIFYFEAVKREYFHPVRVNFFFAPWVVCMFLAISVPPMFSPNRKYLHPAIWCVFMGPYFFLELKIYGQWLSGGKRRLCKVANPSSHLSVVGNFVGAILASKVGWDEVAKFLWAVGFAHYLVVFVTLYQRLPTSEALPKELHPVYSMFIAAPSAASIAWNTIYGQFDGCSRTCFFIALFLYISLVARINFFTGFKFSVAWWSYTFPMTTASVATIKYAEAVPGYPSRALALTLSFISTAMVCVLFVSTLLHAFVWQTLFPNDLAIAITKRKLTREKKPFKRAYDLKRWTKQALAKKISAEKDFEAEEESHH
modifications: S146 and S543 identified as phosphorylated by mass spectrometry of the purified S59A mutant
notes: Slow anion channel 1 (SLAC1), Arabidopsis thaliana, full length, 556 residues; codon-optimised synthetic DNA; residues 150-517 modelled in the structure; No step that removes the tags is described; not shown: Flag, N-terminal, kept
- stoichiometry N: 3
